From PMC10786891, “Massively parallel profiling of RNA-targeting CRISPR-Cas13d” come the findings set out here.

The chains are these.
T1: EsCas13d, nuclease-dead (Eubacterium siraeum, UniProt B0MS50, R295A;H300A;R849A;H854A)
T1 sequence: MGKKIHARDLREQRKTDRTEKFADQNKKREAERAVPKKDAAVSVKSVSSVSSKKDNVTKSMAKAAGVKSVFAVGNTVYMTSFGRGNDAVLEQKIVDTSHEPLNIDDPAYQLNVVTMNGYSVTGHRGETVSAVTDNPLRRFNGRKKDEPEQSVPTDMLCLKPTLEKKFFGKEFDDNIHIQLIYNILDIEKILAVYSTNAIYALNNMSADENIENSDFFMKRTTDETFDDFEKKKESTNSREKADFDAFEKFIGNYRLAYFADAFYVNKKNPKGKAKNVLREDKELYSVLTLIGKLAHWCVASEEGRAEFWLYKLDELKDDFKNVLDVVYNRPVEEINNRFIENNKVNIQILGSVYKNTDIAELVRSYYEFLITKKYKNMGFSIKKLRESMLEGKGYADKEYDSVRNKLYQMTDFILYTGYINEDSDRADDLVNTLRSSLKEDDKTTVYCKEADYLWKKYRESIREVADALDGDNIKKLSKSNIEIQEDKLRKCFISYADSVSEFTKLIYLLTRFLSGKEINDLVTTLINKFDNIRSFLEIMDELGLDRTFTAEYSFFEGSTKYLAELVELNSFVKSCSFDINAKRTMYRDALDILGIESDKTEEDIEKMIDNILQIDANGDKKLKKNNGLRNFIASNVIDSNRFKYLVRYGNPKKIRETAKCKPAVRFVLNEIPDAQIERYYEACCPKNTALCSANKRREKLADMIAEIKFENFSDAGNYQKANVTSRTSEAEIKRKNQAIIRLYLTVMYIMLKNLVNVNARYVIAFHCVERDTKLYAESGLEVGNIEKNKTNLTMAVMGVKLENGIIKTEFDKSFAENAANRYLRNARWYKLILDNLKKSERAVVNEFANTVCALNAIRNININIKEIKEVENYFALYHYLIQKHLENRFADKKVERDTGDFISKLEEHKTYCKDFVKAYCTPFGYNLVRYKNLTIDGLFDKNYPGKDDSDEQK

B1: target 2 MT 5'PFS ACU 3'PFS CCA (mixed)
RNA 1: CACCCGUGCAAAAUUGCAGGGGUCUAAAACCUUCUCCAAAUUGUUUCAUCCU
RNA 2: GGGAAUGGAUCCACAUCUACGAAUUCACUAGGAUGAAACAAUUUGGAGAAGCCAAGAUCGGAAGAGCACACGU
B2: target 2 MT 5'PFS CUG 3'PFS CAC (mixed)
RNA 1: CACCCGUGCAAAAUUGCAGGGGUCUAAAACCUUCUCCAAAUUGUUUCAUCCU
RNA 2: GGGAAUGGAUCCACAUCUACGAAUUCCUGAGGAUGAAACAAUUUGGAGAAGCACAGAUCGGAAGAGCACACGU
B3: target 2 MT 5'PFS UCG 3'PFS ACU (mixed)
RNA 1: CACCCGUGCAAAAUUGCAGGGGUCUAAAACCUUCUCCAAAUUGUUUCAUCCU
RNA 2: GGGAAUGGAUCCACAUCUACGAAUUCUCGAGGAUGAAACAAUUUGGAGAAGACUAGAUCGGAAGAGCACACGU
B4: target 2 MT 5'PFS CUG 3'PFS CAG (mixed)
RNA 1: CACCCGUGCAAAAUUGCAGGGGUCUAAAACCUUCUCCAAAUUGUUUCAUCCU
RNA 2: GGGAAUGGAUCCACAUCUACGAAUUCCUGAGGAUGAAACAAUUUGGAGAAGCAGAGAUCGGAAGAGCACACGU
B5: target 2 MT 5'PFS CUG 3'PFS CAU (mixed)
RNA 1: CACCCGUGCAAAAUUGCAGGGGUCUAAAACCUUCUCCAAAUUGUUUCAUCCU
RNA 2: GGGAAUGGAUCCACAUCUACGAAUUCCUGAGGAUGAAACAAUUUGGAGAAGCAUAGAUCGGAAGAGCACACGU
B6: target 2 MT 5'PFS CAG 3'PFS AAC (mixed)
RNA 1: CACCCGUGCAAAAUUGCAGGGGUCUAAAACCUUCUCCAAAUUGUUUCAUCCU
RNA 2: GGGAAUGGAUCCACAUCUACGAAUUCCAGAGGAUGAAACAAUUUGGAGAAGAACAGAUCGGAAGAGCACACGU
B7: target 2 MT 5'PFS ACU 3'PFS CCG (mixed)
RNA 1: CACCCGUGCAAAAUUGCAGGGGUCUAAAACCUUCUCCAAAUUGUUUCAUCCU
RNA 2: GGGAAUGGAUCCACAUCUACGAAUUCACUAGGAUGAAACAAUUUGGAGAAGCCGAGAUCGGAAGAGCACACGU
B8: target 2 MT 5'PFS GUG 3'PFS UGU (mixed)
RNA 1: CACCCGUGCAAAAUUGCAGGGGUCUAAAACCUUCUCCAAAUUGUUUCAUCCU
RNA 2: GGGAAUGGAUCCACAUCUACGAAUUCGUGAGGAUGAAACAAUUUGGAGAAGUGUAGAUCGGAAGAGCACACGU
B9: target 2 MT 5'PFS ACC 3'PFS UUG (mixed)
RNA 1: CACCCGUGCAAAAUUGCAGGGGUCUAAAACCUUCUCCAAAUUGUUUCAUCCU
RNA 2: GGGAAUGGAUCCACAUCUACGAAUUCACCAGGAUGAAACAAUUUGGAGAAGUUGAGAUCGGAAGAGCACACGU
B10: target 2 MT 5'PFS ACC 3'PFS UUC (mixed)
RNA 1: CACCCGUGCAAAAUUGCAGGGGUCUAAAACCUUCUCCAAAUUGUUUCAUCCU
RNA 2: GGGAAUGGAUCCACAUCUACGAAUUCACCAGGAUGAAACAAUUUGGAGAAGUUCAGAUCGGAAGAGCACACGU
B11: target 2 MT 5'PFS GCC 3'PFS CCA (mixed)
RNA 1: CACCCGUGCAAAAUUGCAGGGGUCUAAAACCUUCUCCAAAUUGUUUCAUCCU
RNA 2: GGGAAUGGAUCCACAUCUACGAAUUCGCCAGGAUGAAACAAUUUGGAGAAGCCAAGAUCGGAAGAGCACACGU
B12: target 2 MT 5'PFS CGG 3'PFS UCG (mixed)
RNA 1: CACCCGUGCAAAAUUGCAGGGGUCUAAAACCUUCUCCAAAUUGUUUCAUCCU
RNA 2: GGGAAUGGAUCCACAUCUACGAAUUCCGGAGGAUGAAACAAUUUGGAGAAGUCGAGAUCGGAAGAGCACACGU
B13: target 2 MT 5'PFS UAA 3'PFS UUC (mixed)
RNA 1: CACCCGUGCAAAAUUGCAGGGGUCUAAAACCUUCUCCAAAUUGUUUCAUCCU
RNA 2: GGGAAUGGAUCCACAUCUACGAAUUCUAAAGGAUGAAACAAUUUGGAGAAGUUCAGAUCGGAAGAGCACACGU
B14: target 2 MT 5'PFS UAA 3'PFS UUU (mixed)
RNA 1: CACCCGUGCAAAAUUGCAGGGGUCUAAAACCUUCUCCAAAUUGUUUCAUCCU
RNA 2: GGGAAUGGAUCCACAUCUACGAAUUCUAAAGGAUGAAACAAUUUGGAGAAGUUUAGAUCGGAAGAGCACACGU
B15: target 2 MT 5'PFS GCA 3'PFS AAU (mixed)
RNA 1: CACCCGUGCAAAAUUGCAGGGGUCUAAAACCUUCUCCAAAUUGUUUCAUCCU
RNA 2: GGGAAUGGAUCCACAUCUACGAAUUCGCAAGGAUGAAACAAUUUGGAGAAGAAUAGAUCGGAAGAGCACACGU
B16: target 2 MT 5'PFS CUC 3'PFS CUC (mixed)
RNA 1: CACCCGUGCAAAAUUGCAGGGGUCUAAAACCUUCUCCAAAUUGUUUCAUCCU
RNA 2: GGGAAUGGAUCCACAUCUACGAAUUCCUCAGGAUGAAACAAUUUGGAGAAGCUCAGAUCGGAAGAGCACACGU
B17: target 2 MT 5'PFS ACC 3'PFS UUU (mixed)
RNA 1: CACCCGUGCAAAAUUGCAGGGGUCUAAAACCUUCUCCAAAUUGUUUCAUCCU
RNA 2: GGGAAUGGAUCCACAUCUACGAAUUCACCAGGAUGAAACAAUUUGGAGAAGUUUAGAUCGGAAGAGCACACGU
B18: target 2 MT 5'PFS CGA 3'PFS AGA (mixed)
RNA 1: CACCCGUGCAAAAUUGCAGGGGUCUAAAACCUUCUCCAAAUUGUUUCAUCCU
RNA 2: GGGAAUGGAUCCACAUCUACGAAUUCCGAAGGAUGAAACAAUUUGGAGAAGAGAAGAUCGGAAGAGCACACGU
B19: target 2 MT 5'PFS CGA 3'PFS AGC (mixed)
RNA 1: CACCCGUGCAAAAUUGCAGGGGUCUAAAACCUUCUCCAAAUUGUUUCAUCCU
RNA 2: GGGAAUGGAUCCACAUCUACGAAUUCCGAAGGAUGAAACAAUUUGGAGAAGAGCAGAUCGGAAGAGCACACGU
B20: target 2 MT 5'PFS ACC 3'PFS UUA (mixed)
RNA 1: CACCCGUGCAAAAUUGCAGGGGUCUAAAACCUUCUCCAAAUUGUUUCAUCCU
RNA 2: GGGAAUGGAUCCACAUCUACGAAUUCACCAGGAUGAAACAAUUUGGAGAAGUUAAGAUCGGAAGAGCACACGU
B21: target 2 MT 5'PFS AGA 3'PFS CGC (mixed)
RNA 1: CACCCGUGCAAAAUUGCAGGGGUCUAAAACCUUCUCCAAAUUGUUUCAUCCU
RNA 2: GGGAAUGGAUCCACAUCUACGAAUUCAGAAGGAUGAAACAAUUUGGAGAAGCGCAGAUCGGAAGAGCACACGU
B22: target 2 MT 5'PFS AAC 3'PFS AGA (mixed)
RNA 1: CACCCGUGCAAAAUUGCAGGGGUCUAAAACCUUCUCCAAAUUGUUUCAUCCU
RNA 2: GGGAAUGGAUCCACAUCUACGAAUUCAACAGGAUGAAACAAUUUGGAGAAGAGAAGAUCGGAAGAGCACACGU
B23: target 2 MT 5'PFS CUC 3'PFS CUU (mixed)
RNA 1: CACCCGUGCAAAAUUGCAGGGGUCUAAAACCUUCUCCAAAUUGUUUCAUCCU
RNA 2: GGGAAUGGAUCCACAUCUACGAAUUCCUCAGGAUGAAACAAUUUGGAGAAGCUUAGAUCGGAAGAGCACACGU
B24: target 2 MT 5'PFS GCC 3'PFS CCG (mixed)
RNA 1: CACCCGUGCAAAAUUGCAGGGGUCUAAAACCUUCUCCAAAUUGUUUCAUCCU
RNA 2: GGGAAUGGAUCCACAUCUACGAAUUCGCCAGGAUGAAACAAUUUGGAGAAGCCGAGAUCGGAAGAGCACACGU
B25: target 1 insC 3' of 16,insU 3' of 7 (mixed)
RNA 1: CACCCGUGCAAAAAUGCAGGGGUCUAAAACUGAGCGGAUAACCUCUCUAUGG
RNA 2: GGGAAUGGAUCCACAUCUACGAAUUCGUACCAUAGACGAGGUUAUCUCGCUCACCGAGAUCGGAAGAGCACACGU
B26: target 1 insG 3' of 22,insG 3' of 21 (mixed)
RNA 1: CACCCGUGCAAAAAUGCAGGGGUCUAAAACUGAGCGGAUAACCUCUCUAUGG
RNA 2: GGGAAUGGAUCCACAUCUACGAAUUCGUACGCGAUAGAGAGGUUAUCCGCUCACCGAGAUCGGAAGAGCACACGU
B27: target 1 insC 3' of 11,insU 3' of 7 (mixed)
RNA 1: CACCCGUGCAAAAAUGCAGGGGUCUAAAACUGAGCGGAUAACCUCUCUAUGG
RNA 2: GGGAAUGGAUCCACAUCUACGAAUUCGUACCAUAGAGAGGUCUAUCUCGCUCACCGAGAUCGGAAGAGCACACGU

The series addresses T1, EsCas13d, nuclease-dead. The series is described as follows: crRNA (strand 1, pre-loaded); Mg2+; 40 mM Tris-HCl pH 7.5, 150 mM NaCl, 6 mM MgCl2, 1 mM DTT, 0.1% Tween-20, 0.2 mg/ml BSA; 25 C; 10 min per concentration, then washed. The following applies: tags: His6-TwinStrep-SUMO cleaved; N-terminal SNAP kept (SNAP-Surface 488); label: 3' end held by stalled T7 RNA polymerase.
B1 gave a Kd of 7.3 ± 1.8 nM.

B2 came in with a Kd of 3.7 ± 0.4 nM. The result for B3 reads 20 ± 4 nM; that for B4, 2.33 ± 0.21 nM; that for B5, 2.29 ± 0.24 nM. The result for B6 reads 6.1 ± 1.4 nM. The result for B7 reads 6.2 ± 0.6 nM. For the molecule B8, binding was characterised by a dissociation constant (Kd) of 27 ± 2.4 nM. B9 displayed a Kd of 11.2 ± 2.2 nM. To B10 belongs 8.2 ± 1.4 nM. To B11 belongs 20 ± 4 nM; to B12, 7 ± 0.6 nM; to B13, 14 ± 2.1 nM. The result for B14 reads 13.4 ± 1.9 nM; that for B15, 10 ± 1.9 nM; that for B16, 3.1 ± 0.6 nM. B17: binding was put at a Kd of 7.8 ± 0.9 nM. B18 showed an equilibrium dissociation constant (Kd) of 4.6 ± 0.9 nM. Compared with the last molecule, the Kd is about 1.7-fold lower. The result for B19 reads 7.8 ± 1.1 nM; that for B20, 9.6 ± 2.8 nM. The result for B21 reads 6.5 ± 1.2 nM; that for B22, 3.3 ± 0.8 nM; that for B23, 2.47 ± 0.18 nM.

On to B24, for which the dissociation constant Kd came to 18 ± 2 nM. Compared with the last molecule, the Kd is about 7.3-fold higher. In the case of B25, binding was characterised by a dissociation constant (Kd) of 75 ± 8 nM. Against the preceding molecule, the Kd is about 4.2-fold higher. B26: the Kd was found to be 68 ± 24 nM. The result for B27 reads 39 ± 5 nM.

In general, Kd refers to the concentration at which binding is half-saturated. Higher therefore signals a looser complex.
